Assay [1] addresses T1, epidermal growth factor receptor (EGFR) on tumor cells (A431 epidermoid carcinoma cells); MDA-MB-231 breast … (UniProt P00533 25-1210, limits assumed).
T1 construct: whole, on cells; Endogenous receptor of the cell lines; also called EGFR overexpressed in a cancer cell line (A431); EGFR in A431 cells
The assay can be described thus: flow cytometry on A431 cells, 10 µg antibody.

Assay [2] concerns the target T2, epidermal growth factor receptor (EGFR) (Sigma, U.S), purified protein (UniProt P00533 25-1210, limits assumed).
T2 construct: also called EGFR antigen
The assay can be described thus: competitive ELISA, EGFR-coated plate with soluble EGFR as competitor (FIG. 9).
Experimental: 100 μL of EGFR (Sigma, U.S) at a 2 μg/mL dilution in PBS was added to each well of a plate and incubated overnight at 4° C. Each well was washed once with PBST, 300 μL of 1% BSA-PBS solution was added to each well, and stored for 1 hour at room temperature.
2 μg of EGFR was diluted by a two-fold and 10 μL of the diluted EGFR was added to each well of the plate. Then, 90 μL of the antibody diluted to the optimum concentration determined in (1) was added to each well, incubated for 2 hours at room temperature, and washed 4 times with PBST.

Residue numbers refer to the chain shown, from its start.

B1: human antibody ER2 (antibody, V domains shown)
VH: EVQLVESGGGVVQPGGSLRLSCAASGFTFSDYDMSWIRQAPGKGLEWVSGILGGSERSYYRDSVKGRFTISRDNSRKTLYLQMNSLRAEDTAVYYCARHGSPGYTLYAWDYWGQGTTVTVSS
VL: DIVMTQTPLSLPVTPGEPASISCRSNQDLTHSNGNTYLEWYLQKPGQSPRLLIYKVSNRFSGVPDRFSGSGAGTDFTLRISRVEAEDVGVYYCMQGTHWPWTFGQGTKVDIKR
notes: also called ER2 antibody
Consider B1, for which the binding result in assay [1] is “binds”.

B2: human antibody ER79 (antibody, V domains shown)
VH: B1 VH
VL: B1 VL with N26S, D28S, L29V, T30D, H31M, S32G, N33I, T36N
notes: also called ER79 antibody
Consider B2, for which, in assay [2], the “fold lower affinity than C225” value turned out to be 2 times; the “percent of affinity relative to C225 and M96” value was about 63%.

The record behind these values is US20120231021A1 (GREEN CROSS, published 2012).
